This data set relates to CC[C@H]1C[C@@H]2C[C@H]3c4[nH]c5ccc(O)cc5c4CCN(C2)[C@@H]13. The experiment in a line: HPLC-MS of ibogaine formation, Michaelis-Menten fit. As to conditions: SAM, HEPES, pH 9 (relative-rate assays adjusted to optimum), 30 °C, 25 min. Format: biochemical, Tabernanthe iboga. The source says:
HPLC-MS of ibogaine formation, Michaelis-Menten fit on N10OMT (noribogaine-10-O-methyltransferase; OMT candidate 1)

Usually Km stands for the substrate concentration at which the rate is half of its maximum. The Vmax is the rate approached at saturating substrate. The term kcat denotes the maximal rate divided by the concentration of active sites. As usually defined, the kcat/Km is the turnover number divided by the Michaelis constant. Turning to “N10OMT (noribogaine-10-O-methyltransferase; OMT candidate 1) (Tabernanthe iboga)”, the Km came to 73.6 ± 28.5 µM, the Vmax was found to be 0.00084 µmol/min/mg, the kcat was found to be 0.000548 ± 7.23e-05 s⁻¹ and the kcat/Km turned out to be 7.45 ± 3.05 M⁻¹ s⁻¹.

Values taken from article PMC6130943, “Cytochrome P450 and O-methyltransferase catalyze the final steps in the biosynthesis of the anti-addictive alkaloid ibogaine from Tabernanthe iboga” (The Journal of Biological Chemistry, 2018).
